This passage reports Kd results from PMC9604462, “SAXS Examinations of the Redox-Dependent Formation of a DNA-SOD1 Complex”.

For orientation: Kd means the concentration at which binding is half-saturated.

Data set [1] concerns the target human Cu/Zn superoxide dismutase SOD1, RED-NHS labeled (human, UniProt P00441 1-154). The data set is described as follows: MST; 500 nM SOD1; DNA two-fold dilutions from 20 uM; FRET: 20 mM Tris-HCl pH 7.4, 37 C, 2 h; MST: 10 mM PBS pH 7.4, 0.05% Tween, room temperature, 5 min; SAXS: 100 uM bovine SOD1 and dsDNA, buffer not given in material. The conditions noted are these: protein: recombinant; tags: N-terminal His tag; RED-NHS dye; chain copies: 2; blunt.

In data set [2] the target is bovine SOD1, rhodamine B labeled (bovine, UniProt P00442 2-152). The data set is described as follows: FRET; 20 mM Tris-HCl pH 7.4; 100 uM DNA, 200 uM SOD1; fitted from kinetic curve; FRET: 20 mM Tris-HCl pH 7.4, 37 C, 2 h; MST: 10 mM PBS pH 7.4, 0.05% Tween, room temperature, 5 min; SAXS: 100 uM bovine SOD1 and dsDNA, buffer not given in material. The settings on record: protein: commercial; tags: rhodamine B label; chain copies: 2; blunt.
Chain of bovine SOD1, rhodamine B labeled (P00442 2-152): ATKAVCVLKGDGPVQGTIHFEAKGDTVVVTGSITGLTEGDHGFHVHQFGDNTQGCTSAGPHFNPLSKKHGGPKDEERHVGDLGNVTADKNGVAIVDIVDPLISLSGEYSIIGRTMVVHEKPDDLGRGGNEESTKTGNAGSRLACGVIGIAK

Chain of human Cu/Zn superoxide dismutase SOD1, RED-NHS labeled (P00441 whole entry): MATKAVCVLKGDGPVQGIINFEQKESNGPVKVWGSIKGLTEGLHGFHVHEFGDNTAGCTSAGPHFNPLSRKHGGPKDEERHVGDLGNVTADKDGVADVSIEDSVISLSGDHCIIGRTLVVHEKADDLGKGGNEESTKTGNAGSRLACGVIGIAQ

B1: dsDNA (dsDNA)
DNA 1: ATGGAATGGAAT
DNA 2: ATTCCATTCCAT
With B1, the Kd in data set [1] was determined as 155 nM.

B2: FITC-dsDNA (dsDNA)
DNA 1: ATGGAATGGAAT
DNA 2: ATTCCATTCCAT
In data set [2], B2 registered a Kd of 105 nM.
